How the values were obtained:
Conditions in all cases: remark: other sources report otherwise
[1] = molecular target: T1, p60 TNFR (endogenous), P19438; assay: DTSSP crosslinking of H9 cells with or without TNFα, non-reducing Western blot
T1 chain: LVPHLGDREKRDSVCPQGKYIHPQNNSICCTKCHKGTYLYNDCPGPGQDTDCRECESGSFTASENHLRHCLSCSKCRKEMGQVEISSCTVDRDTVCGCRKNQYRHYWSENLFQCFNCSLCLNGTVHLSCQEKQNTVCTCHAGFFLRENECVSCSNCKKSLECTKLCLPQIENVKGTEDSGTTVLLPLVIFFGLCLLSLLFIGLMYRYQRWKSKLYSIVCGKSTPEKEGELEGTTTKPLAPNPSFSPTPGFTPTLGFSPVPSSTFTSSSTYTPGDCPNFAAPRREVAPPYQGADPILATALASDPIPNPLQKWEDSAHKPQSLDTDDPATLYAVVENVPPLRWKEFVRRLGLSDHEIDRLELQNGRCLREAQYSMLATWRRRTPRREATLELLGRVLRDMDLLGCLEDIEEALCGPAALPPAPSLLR

[2] = molecular target: T2, Fas with the death domain, CFP and YFP fusions (human), P25445; assay: CFP dequenching after YFP photobleaching, fluorescence microscope
T2 chain: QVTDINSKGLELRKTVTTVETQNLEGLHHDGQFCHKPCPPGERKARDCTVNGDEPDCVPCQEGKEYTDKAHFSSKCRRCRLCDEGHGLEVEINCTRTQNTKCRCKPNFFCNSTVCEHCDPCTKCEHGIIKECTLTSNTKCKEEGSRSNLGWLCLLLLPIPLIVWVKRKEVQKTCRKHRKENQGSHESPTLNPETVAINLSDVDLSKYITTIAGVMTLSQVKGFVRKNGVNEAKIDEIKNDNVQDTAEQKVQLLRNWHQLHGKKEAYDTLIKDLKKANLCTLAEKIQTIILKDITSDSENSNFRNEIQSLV

[3] = molecular target: T3, Fas (endogenous, native receptor on T lymphoma cells), P25445; assay: DTSSP crosslinking of H9 lymphoma cells, anti-Fas Western blot of deglycosylated lysates
T3 chain: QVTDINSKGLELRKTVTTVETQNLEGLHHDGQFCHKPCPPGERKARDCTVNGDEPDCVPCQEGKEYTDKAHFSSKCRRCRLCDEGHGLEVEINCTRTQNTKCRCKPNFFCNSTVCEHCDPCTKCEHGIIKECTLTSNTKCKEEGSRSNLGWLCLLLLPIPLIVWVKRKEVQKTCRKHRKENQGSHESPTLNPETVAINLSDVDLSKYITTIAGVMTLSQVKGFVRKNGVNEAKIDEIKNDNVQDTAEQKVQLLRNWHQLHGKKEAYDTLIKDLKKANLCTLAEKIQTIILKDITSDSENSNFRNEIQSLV

B1: p60 TNFR (endogenous), P19438 30-455 (receptor, UniProt P19438 30-455, looked up)
chain: LVPHLGDREKRDSVCPQGKYIHPQNNSICCTKCHKGTYLYNDCPGPGQDTDCRECESGSFTASENHLRHCLSCSKCRKEMGQVEISSCTVDRDTVCGCRKNQYRHYWSENLFQCFNCSLCLNGTVHLSCQEKQNTVCTCHAGFFLRENECVSCSNCKKSLECTKLCLPQIENVKGTEDSGTTVLLPLVIFFGLCLLSLLFIGLMYRYQRWKSKLYSIVCGKSTPEKEGELEGTTTKPLAPNPSFSPTPGFTPTLGFSPVPSSTFTSSSTYTPGDCPNFAAPRREVAPPYQGADPILATALASDPIPNPLQKWEDSAHKPQSLDTDDPATLYAVVENVPPLRWKEFVRRLGLSDHEIDRLELQNGRCLREAQYSMLATWRRRTPRREATLELLGRVLRDMDLLGCLEDIEEALCGPAALPPAPSLLR
percent of chains cross-linked as apparent trimers and higher order complexes [1]: 15 to 20%

B2: Fas with the death domain, CFP and YFP fusions, P25445 26-335 (receptor, human, UniProt P25445 26-335, looked up, not shown: large carriers)
chain: QVTDINSKGLELRKTVTTVETQNLEGLHHDGQFCHKPCPPGERKARDCTVNGDEPDCVPCQEGKEYTDKAHFSSKCRRCRLCDEGHGLEVEINCTRTQNTKCRCKPNFFCNSTVCEHCDPCTKCEHGIIKECTLTSNTKCKEEGSRSNLGWLCLLLLPIPLIVWVKRKEVQKTCRKHRKENQGSHESPTLNPETVAINLSDVDLSKYITTIAGVMTLSQVKGFVRKNGVNEAKIDEIKNDNVQDTAEQKVQLLRNWHQLHGKKEAYDTLIKDLKKANLCTLAEKIQTIILKDITSDSENSNFRNEIQSLV
FRET efficiency [2]: 27%

B3: Fas (endogenous, native receptor on T lymphoma cells), P25445 26-335 (receptor, UniProt P25445 26-335, looked up)
chain: QVTDINSKGLELRKTVTTVETQNLEGLHHDGQFCHKPCPPGERKARDCTVNGDEPDCVPCQEGKEYTDKAHFSSKCRRCRLCDEGHGLEVEINCTRTQNTKCRCKPNFFCNSTVCEHCDPCTKCEHGIIKECTLTSNTKCKEEGSRSNLGWLCLLLLPIPLIVWVKRKEVQKTCRKHRKENQGSHESPTLNPETVAINLSDVDLSKYITTIAGVMTLSQVKGFVRKNGVNEAKIDEIKNDNVQDTAEQKVQLLRNWHQLHGKKEAYDTLIKDLKKANLCTLAEKIQTIILKDITSDSENSNFRNEIQSLV
percent of chains cross-linked as trimers (densitometry) [3]: 60%
